Article PMC9636575, “MqsR is a noncanonical microbial RNase toxin that is inhibited by antitoxin MqsA via steric blockage of substrate binding” (The Journal of Biological Chemistry, 2022)

Biological target: T1, MqsR (E. coli, UniProt Q46865 1-98)
T1 construct: also called MqsR toxin; 15N-labeled MqsR
Test: NMR titration; unlabeled MqsA(1-76) titrated into 15N-labeled MqsR (50 uM); 2D [1H,15N] HSQC; 298 K; 50 mM NaCl, 20 mM Na phosphate pH 6.5, 0.5 mM TCEP, 10% D2O
Conditions: both partners purified

T1 sequence (Q46865 whole entry): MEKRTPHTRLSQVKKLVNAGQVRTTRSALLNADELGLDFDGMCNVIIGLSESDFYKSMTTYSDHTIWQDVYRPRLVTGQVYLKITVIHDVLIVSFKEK

B1: N-terminal toxin-binding domain of MqsA (residues 1-76) (domain or fragment)
chain: MKCPVCHQGEMVSGIKDIPYTFRGRKTVLKGIHGLYCVHCEESIMNKEESDAFMAQVKAFRASVNAETVAPEFIVK
notes: also called MqsA_(1-76); unlabeled MqsA_(1-76)
- binding result: binds
